Values of other authors in article PMC4359947.
pKd: −log10 of the molar value.

Biological target: CAR D1 (Homo sapiens) (UniProt P78310)

CAR D1, sequence (P78310 20-134): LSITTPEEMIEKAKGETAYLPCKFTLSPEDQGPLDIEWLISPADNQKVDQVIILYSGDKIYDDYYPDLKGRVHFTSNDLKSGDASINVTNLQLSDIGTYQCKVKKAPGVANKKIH

For CAR D1 (from UniProt P78310), the pKd is listed as 4.80.
